Data: patent US20230398228A1, “ERIBULIN-BASED ANTIBODY-DRUG CONJUGATES AND METHODS OF USE” (EISAI R&D MANAGEMENT CO., LTD., priority 2016, published 2023)

Columns and labels:
[1] = DAR analysis by LC-MS (UPLC/ESI-MS, reverse-phase LC-MS); settings: for DAR (LC-MS): reverse-phase LC-MS
Experimental: ADCs were deglycosylated using PNGase F (New England BioLabs). G7 buffer (10 μL) and PNGase F (2 μL) were added to the mAb (90 μL, 1 mg/mL in DPBS). The reaction was incubated in a Discover microwave (CEM) for 2 cycles: (1) microwave power 10 W, 37° C., 10 min, followed by a 5-min pause; (2) microwave power 2 W, 37° C., 10 min. A portion of the sample was reduced by adding DTT to a final concentration of 20 mM, followed by incubation at 60° C. for 3 min. Samples were then analyzed using a Waters Acquity Ultra Performance Liquid Chromatography (UPLC) and quadrupole time of flight (Q-Tof) Premier mass spectrometer. Samples (0.5-2 μg each) were injected onto a MassPrep™ micro desalting column at 65° C., eluted from the column with a 5 min equilibration in 95% of mobile phase A, a 10 min gradient (5-90% B), and a 10 min re-equilibration in 95% of mobile phase A, at 0.05 mL/min. Mobile phase A was 0.1% formic acid in water. Mobile phase B was 0.1% formic acid in acetonitrile. The Q-Tof mass spectrometer was run in positive ion, V-mode with detection in the range of 500-4000 m/z. The source parameters were as follows: capillary voltage, 2.25 kV (intact antibody)-2.50 kV (reduced antibody); sampling cone voltage, 65.0 V (intact antibody) or 50.0 V (reduced antibody); source temperature, 100° C.; desolvation temperature, 250° C.; desolvation gas flow, 550 L/hr. The protein peak was deconvoluted using the MassLynx® MaxEnt 1 function. Relative intensities of each unconjugated, singly-conjugated, and multiply-conjugated heavy and light chain masses were combined to calculate the overall DAR using the formula:
2[[ILC+1+2(ILC+2)+3(ILC+3)+ . . . n(ILC+n)]/ΣILCtot]+2[[IHC+1+2(IHC+2)+3(IHC+3)+ . . . n(IHC+n)]/ΣIHCtot]
where ILC+1 is mass intensity of light chain conjugated with one cytotoxin, ILC+2 is mass intensity of light chain conjugated with two cytotoxins, etc. IHC are the intensities from the corresponding conjugated heavy chains, and ΣILCtot and ΣIHCtot are the combined intensities of all unconjugated and conjugated light chains and heavy chains, respectively.
DAR was also analyzed using an LC-MS method with a Waters Alliance HPLC with SQD/PDA detection. Samples were injected onto a Proteomix RP-1000 column ([…], 1000A, 4.6 mm×15 cm, Sepax) at 65° C., and eluted with a 3 min equilibration in 25% B, a 27 min linear gradient from 25%-55% B, a 5 min hold at 55% B, a 1 min change to 90% B, a 5 min hold at 90% B, a 1 min change back to 25% B, and a 5 min reequilibration at 25% B. Mobile phase A was 0.1% TFA in water, and mobile phase B was 0.1% TFA in acetonitrile. The elute was then split (10:1) into PDA and SQD detectors. The SQD detector was set up as ES positive, capillary voltage at 3.2 kV, cone voltage at 40 V, extractor at 3 V, and RF lens at 0.2 V, source temperature at 150° C., and desolvation temperature at 250° C. Mass data was acquired at 200-2000 m/z for 40 min, continuum mode, scan time 1 second. Data was analyzed and deconvoluted offline using MassLynx and MaxEnt1. DAR was calculated using the formula:
2[[AUCLC+1+2(AUCLC+2)+3(AUCLC+3)+ . . . n(AUCLC+n)]/[…]]+2[[AUCHC+1+2(AUCHC+2)+3(AUCHC+3)+ . . . n(AUCHC+n)]/ΣAUCHCtot]
where AUCLC+1 is the area under the curve of the light chain peak conjugated with one cytotoxin, AUCLC+2 is the area under the curve of the light chain peak conjugated with two cytotoxins, etc. AUCHC is the area under the curve of the corresponding heavy chains, and ΣAUCLCtot and ΣAUCHCtot are the combined area under the curve of all unconjugated and conjugated light chains and heavy chains, respectively.

[2] = SEC-HPLC aggregation analysis; assay type: physicochemical
Experimental: The antibody aggregation was analyzed by size-exclusion, high-performance liquid chromatography (SEC-HPLC) using an Agilent 1100. The mAb was diluted to 1 mg/mL in DPBS. The antibody (20 μL) was injected onto a TSKgel® SuperSW guard column (4.6 mm×3.5 cm, 4 μm pore size, Tosoh Bioscience), followed by a TSKgel® SuperSW3000 column (4.6 mm×30 cm, 4 μm pore size), eluted from the column with 0.1 M sodium phosphate containing 0.15 M NaCl and 0.05% NaN3, at pH 7.4, at a flow rate of 0.3 mL/min for 20 min. All data were analyzed using Agilent ChemStation software. Percent aggregation was calculated as [PAaggregate/PAtotal]*100, where PA=integrated peak area.
ADC was diluted to 1 mg/mL in DPBS. ADC (10 μL) was then injected onto an Advanced SEC 300A guard column (4.6 mm×3.5 cm, 2.7 μm pore size, Agilent), followed by a AdvancedBio 300A column (4.6 mm×30 cm, 2.7 μm pore size). ADC was eluted from the column with 0.1 M sodium phosphate containing 0.15 M NaCl and 5% IPA, pH 7.4 at a flow rate of 0.25 mL/min for 28 min. All data were analyzed using Agilent ChemStation software. Percent aggregation was calculated as [PAaggregate/PAtotal]*100, where PA=integrated peak area.

human mesothelin = human mesothelin (Homo sapiens, UniProt Q13421); test: ELISA, mesothelin; assay type: binding; settings: MORAb-009 and its ADCs; for EC50: read-out: Antigen Binding ELISA, EC50
Experimental: Recombinant human mesothelin was diluted to 1 μg/mL in coating buffer (50 mM carbonate-bicarbonate buffer, pH 9.6), and coated onto 96-well Maxisorp black plates (Thermo, Cat No. 43711, 100 μL/well) at 4° C., overnight. Coating solution was discarded and the plates were washed three times using 1×PBS with 0.05% Tween-20 (PBST) buffer. Plates were blocked in 300 μL blocking buffer (1% BSA in PBST) at room temperature for 2 hours on an orbital shaker. […] Blocking buffer was discarded and 100 μL/well of diluted antibody was added to the plates. Plates were incubated at room temperature for 2 hours on an orbital shaker. Antibody solution was discarded and plates were washed three times using PBST. 100 μL/well of goat-anti-human IgG (H+L)-HRP (1:10,000 dilution in blocking buffer) solution was added to the plates, and plates were incubated at room temperature for 1 hour on an orbital shaker. Secondary antibody solution was discarded and plates were washed three times using PBST. 100 μL/well of QuantaBlu fluorogenic peroxidase substrate working solution (Thermo, Cat No. 15169) was added to the plates, and plates were incubated at room temperature for 30 min. Fluorescence was read at excitation 325 nm/emission 420 nm using a SpectraMax M5 (Molecular Devices). Data was analyzed using SoftMaxPro 5.4.2 software with 4-parameter fitting.

IGROV1 cells = test: Crystal Violet cytotoxicity assay (Example 4), IGROV1; assay type: cell-based, human; settings: mean of replicate experiments, read-out: Cytotoxicity IC50 (nM), IGROV1 (FR^hi, MSLN^neg)
Experimental: (§1) Test reagents were serial diluted 1:3 in 2 mL deep-well dilution plates, starting at 200 nM (10 dilutions total). […] Medium was then discarded. […] Plates were read at 570 nm. Data was analyzed using GraphPad Prism 6.

NCI-H2110 cells = test: Crystal Violet cytotoxicity assay (Example 4), NCI-H2110; assay type: cell-based, human; settings: mean of replicate experiments, read-out: Cytotoxicity IC50 (nM), NCI-H2110 (FR^med, MSLN^med)
Experimental: as §1

A431 cells = test: Crystal Violet cytotoxicity assay (Example 4), A431 (parental); assay type: cell-based, human; settings: mean of replicate experiments, read-out: Cytotoxicity IC50 (nM), A431 (FR^neg, MSLN^neg)
Experimental: Test reagents were serial diluted 1:3 in 2 mL deep-well dilution plates, starting at 200 nM (10 dilutions total). […] Medium was then discarded. […] Plates were read at 570 nm. Data was analyzed using GraphPad Prism 6. […]
MAL-PEG2-Val-Cit-PAB-eribulin (ER-001159569) was conjugated to eight different anti-human mesothelin antibodies (Table 1). Binding affinities of the parental antibodies were determined by BIAcore analysis, as described above in section 1.6.1. Aggregation levels for all anti-human mesothelin ADCs were determined by SEC-HPLC and the DAR was analyzed using HIC-HPLC. In vitro potency was evaluated using a Crystal Violet cell-based cytotoxicity assay in A3 (A431 stabily transfected with human mesothelin (MSLN), MSLN^hi), OVCAR3 (human ovarian, MSLN^hi), HEC-251 (human endometroid, MSLN^med), H226 (human lung squamous cell mesothelioma, MSLN^lo), and A431 parental (MSLN^neg) cells.

[3] = system: LXFA-737 NSCLC patient-derived xenograft; test: NSCLC PDx model LXFA-737; assay type: in vivo, mouse; settings: for Tumor Volume / Tumor Growth Inhibition: 5 mg/kg single dose i.v.; for Tumor Growth Inhibition: vehicle = 100
Source text: Tumor implantation: NSCLC tumor fragments were obtained from LXFA-737 tumor xenografts serially passaged in nude mice. After removal from donor mice, tumors were cut into fragments (3-4 mm edge length) and placed in phosphate-buffered saline (PBS) containing 10% penicillin/streptomycin. Recipient animals were anesthetized by inhalation of isoflurane and received unilateral or bilateral tumor implants subcutaneously in the flank. Tumor xenografts were implanted with one or two tumors per mouse at a take rate <65%. In the case of a bilateral take, one of these tumors was explanted prior to randomization. Animals and tumor implants were monitored daily until solid tumor growth was detectable in a sufficient number of animals. At randomization, the volume of growing tumors was determined. […] Animals not used for experiments were euthanized.
Body weight was measured prior to dose on each dosing day, and two times per week during the study. At the end of the study, the terminal body weight was measured and recorded.

[4] = system: human BM-MSCs co-cultured with MKN-74 cells; test: 3D co-culture system (rStomach, zPredicta), MSC differentiation by flow cytometry; assay type: cell-based; settings: 7 days treatment, MORAb-202 10 nM, MORAb-003 10 nM, eribulin […] and 0.2 nM (Table 41)
Experimental: All mesenchymal stem cell (MSC)-containing 3D co-culture experiments were conducted in zPredicta, using organ-specific 3D extracellular matrix systems such as rStomach™. Bone marrow mesenchymal stem cells (BM-MSCs) in rStomach™ were co-cultured with the Nuc Red Light MKN-74 gastric cancer cell line in quadruplicate in 48-well format for 12 days. […] Prior to culture, BM-MSCs were evaluated for target antigen expression and for markers of MSC differentiation (Table 40) by flow cytometry.
Controls included untreated and vehicle-treated (PBS and DMSO) cultures. MSC differentiation was monitored by light microscopy. Once visible differentiation was observed, samples were harvested for staining and flow cytometry analysis.
Bone marrow mesenchymal stem cells (BM-MSCs) in rStomach™ (zPredicta) were co-cultured with the MKN-74 gastric cancer cell line for 12 days. […] Once visible MSC differentiation was observed by light microscopy, samples were harvested for staining and flow cytometry analysis.

Row | Compound | Antigen Binding ELISA, EC50 (human mesothelin) [µg/mL] | EC50 (human mesothelin) [nM] | SEC-HPLC Analysis % Aggr. [2] [%] | SEC-HPLC Analysis % Frag. [2] [%] | SEC-HPLC Analysis % Monomer [2] [%] | IC50 (IGROV1 cells) [nM] | DAR (LC-MS) [1] | IC50 (NCI-H2110 cells) [nM] | IC50 (A431 cells) [nM] | other results
1 | COc1cc2cc(c1Cl)N(C)C(=O)C[C@H](OC(=O)C(C)N(C)C(=O)CCSC1CC(=O)N(CC3CCC(C(=O)ON4C(=O)CCC4=O)CC3)C1=O)[C@@H]1O[C@H]1[C@H](C)[C@@H]1C[C@@](O)(NC(=O)O1)[C@H](OC)/C=C/C=C(\C)C2 (stereo partly drawn) [M-DM1] | – | – | – | – | – | – | – | – | – | DAR ([1]; MORAb-003 ADCs, DAR by LC-MS): 3.6; Aggregation (%) ([2]; MORAb-003 ADCs, SEC-HPLC): 1.8%
2 | MORAb009 | 0.0426 | 0.28 | 0 | 0 | 100 | – | – | – | – | –
3 | MORAb009-DBCO-PEG2 eribulin | 0.0233 | 0.16 | 1.15 | 0 | 98.85 | 75.7 | 3.07 | 85.7 | > 100 | –
4 | MORAb009-DBCO-PEG4 VCP eribulin | 0.0337 | 0.22 | 0.22 | 0 | 99.78 | 13 | 2.91 | 31.4 | > 100 | –
5 | MORAb-003: humanized anti-human folate receptor alpha antibody (USAN name: farletuzumab) | – | – | – | – | – | – | – | – | – | Tumor Volume ([3]; Day 21, n = 6): 860.7 mm^3; Tumor Growth Inhibition ([3]; Day 21, n = 6): (85.7) %; Tumor Volume ([3]; Day 32, n = 6): 1572.1 mm^3; Tumor Growth Inhibition ([3]; Day 32, n = 6): (100.7) %; anti-tumor activity, in words ([3]; 5 mg/kg single i.v. dose): did not demonstrate significant anti-tumor activity; Percentage of live cells, Pericytes ([4]; PBS 14.6%): 24.0%; Percentage of live cells, Adipocytes ([4]; PBS […]): 0.69%; Percentage of live cells, MSCs ([4]; PBS […]): 37.1%
